Read-outs that look alike come from different tables or passages of the source.
T1: human type I IFN receptor on HEK-Blue IFN-α/β cells (human, UniProt P17181 28-557; P48551 27-515)
T1 sequence (looked up) 1: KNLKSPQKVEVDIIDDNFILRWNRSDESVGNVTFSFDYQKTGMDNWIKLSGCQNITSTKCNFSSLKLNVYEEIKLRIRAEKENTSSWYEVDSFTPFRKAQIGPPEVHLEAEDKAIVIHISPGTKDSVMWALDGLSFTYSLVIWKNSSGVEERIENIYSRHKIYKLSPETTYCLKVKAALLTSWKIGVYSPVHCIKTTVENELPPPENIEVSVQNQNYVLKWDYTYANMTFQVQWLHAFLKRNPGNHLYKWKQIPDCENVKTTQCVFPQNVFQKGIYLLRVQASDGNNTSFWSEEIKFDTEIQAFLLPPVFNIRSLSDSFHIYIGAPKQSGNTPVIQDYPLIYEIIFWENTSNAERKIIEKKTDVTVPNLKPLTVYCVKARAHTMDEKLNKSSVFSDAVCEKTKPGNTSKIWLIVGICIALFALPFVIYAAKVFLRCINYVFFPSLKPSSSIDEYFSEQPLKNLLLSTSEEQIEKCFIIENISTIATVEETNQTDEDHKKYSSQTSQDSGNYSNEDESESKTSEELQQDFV
T1 sequence (looked up) 2: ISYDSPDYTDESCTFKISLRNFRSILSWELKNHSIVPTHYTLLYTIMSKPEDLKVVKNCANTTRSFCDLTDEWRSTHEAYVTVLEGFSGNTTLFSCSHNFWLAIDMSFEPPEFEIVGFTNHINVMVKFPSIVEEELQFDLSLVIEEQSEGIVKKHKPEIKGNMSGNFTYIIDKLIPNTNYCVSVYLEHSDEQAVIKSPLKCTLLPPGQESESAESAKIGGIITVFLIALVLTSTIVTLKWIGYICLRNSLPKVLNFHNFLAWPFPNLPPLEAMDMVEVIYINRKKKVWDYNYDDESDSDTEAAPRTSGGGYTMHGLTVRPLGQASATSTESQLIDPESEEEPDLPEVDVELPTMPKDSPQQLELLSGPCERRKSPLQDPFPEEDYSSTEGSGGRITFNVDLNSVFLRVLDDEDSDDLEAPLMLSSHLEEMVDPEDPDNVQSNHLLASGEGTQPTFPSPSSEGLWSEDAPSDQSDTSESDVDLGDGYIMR


Columns and labels:
Experiment in all cases: cell-based or functional assay
[1] = target: human IFNλ receptor on HEK-Blue IFN-λ cells (human)
human CD40 [2] = target: T2, human CD40 (human, UniProt P25942 21-277)
T2 sequence (P25942 21-277): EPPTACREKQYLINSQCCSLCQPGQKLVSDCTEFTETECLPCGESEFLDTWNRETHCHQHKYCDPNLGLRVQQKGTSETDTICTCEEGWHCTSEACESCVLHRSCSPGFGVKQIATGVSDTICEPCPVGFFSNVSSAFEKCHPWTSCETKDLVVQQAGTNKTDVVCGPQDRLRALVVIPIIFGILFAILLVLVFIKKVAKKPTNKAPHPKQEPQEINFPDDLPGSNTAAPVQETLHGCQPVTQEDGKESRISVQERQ

human CD40 [3] = target: T2, human CD40; remark: listed apart in the source
human CD40 [4] = target: T2, human CD40; remark: listed apart in the source
[5] = target: T1, human type I IFN receptor on HEK-Blue …
[6] = target: human IFNγ receptor on HEK-Blue IFN-γ cells (human)

Binder	CD40 EC50 (HEK-Blue CD40L NFκB-SEAP reporter cells) (human CD40 [2])	CD40 EC50 (HEK-Blue CD40L NFκB-SEAP reporter cells) (human CD40 [4])	IFNβ EC50 (HEK-Blue IFN-α/β SEAP reporter cells) [5]	further results
IFA44 (antibody, human IgG2, kappa) light: DIQMTQSPSSVSASVGDRVTITCRASQGIYSWLAWYQQKPGKAPNLLIYTASTLQSGVPSRFSGSGSGTDFTLTISSLQPEDFATYYCQQANIFPLTFGGGTKVEIKRTVAAPSVFIFPPSDEQLKSGTASVVCLLNNFYPREAKVQWKVDNALQSGNSQESVTEQDSKDSTYSLSSTLTLSKADYEKHKVYACEVTHQGLSSPVTKSFNRGECGGGGSGGGGSGGGGSGGGGSVPVARLHGALPDARGCHIAQFKSLSPQELQAFKRAKDALEESLLLKDCRCHSRLFPRTWDLRQLQVRERPMALEAELALTLKVLEATADTDPALVDVLDQPLHTLHHILSQFRACIQPQPTAGPRTRGRLHHWLYRLQEAPKKESPGCLEASVTFNLFRLLTRDLNCVASGDLCV heavy: not shown	41.4 ng/mL	–	–	IFNλ EC50 (HEK-Blue IFNλ reporter cells) [1]: 0.153 ng/mL
3G5 (antibody, human IgG2, kappa) heavy: QVQLVESGGGVVQPGKSLRLSCAASGFTFSSNGIHWVRQAPGKGLEWVAVIWSDGSNKFYADSVKGRFTISRDNSKNTLYLQMNSLRAEDTAVYYCARASGSGSYYNFFDYWGQGTLVTVSSASTKGPSVFPLAPCSRSTSESTAALGCLVKDYFPEPVTVSWNSGALTSGVHTFPAVLQSSGLYSLSSVVTVPSSNFGTQTYTCNVDHKPSNTKVDKTVERKCCVECPPCPAPPVAGPSVFLFPPKPKDTLMISRTPEVTCVVVDVSHEDPEVQFNWYVDGVEVHNAKTKPREEQFNSTFRVVSVLTVVHQDWLNGKEYKCKVSNKGLPAPIEKTISKTKGQPREPQVYTLPPSREEMTKNQVSLTCLVKGFYPSDIAVEWESNGQPENNYKTTPPMLDSDGSFFLYSKLTVDKSRWQQGNVFSCSVMHEALHNHYTQKSLSLSPG light: not shown	–	–	–	CD40 EC50, mean (HEK-Blue CD40L NFκB-SEAP reporter cells) (human CD40 [3]): 9.3 ng/mL
IFA108 (antibody, human IgG2, kappa) heavy: QVQLVESGGGVVQPGKSLRLSCAASGFTFSSNGIHWVRQAPGKGLEWVAVIWSDGSNKFYADSVKGRFTISRDNSKNTLYLQMNSLRAEDTAVYYCARASGSGSYYNFFDYWGQGTLVTVSSASTKGPSVFPLAPCSRSTSESTAALGCLVKDYFPEPVTVSWNSGALTSGVHTFPAVLQSSGLYSLSSVVTVPSSNFGTQTYTCNVDHKPSNTKVDKTVERKCCVECPPCPAPPVAGPSVFLFPPKPKDTLMISRTPEVTCVVVDVSHEDPEVQFNWYVDGVEVHNAKTKPREEQFNSTFRVVSVLTVVHQDWLNGKEYKCKVSNKGLPAPIEKTISKTKGQPREPQVYTLPPSREEMTKNQVSLTCLVKGFYPSDIAVEWESNGQPENNYKTTPPMLDSDGSFFLYSKLTVDKSRWQQGNVFSCSVMHEALHNHYTQKSLSLSPGAEAAAKEAAAKASYNLLGFLQRSSNFQCQKLLWQLNGRLEYCLKDRMNFDIPEEIKQLQQFQKEDAALTIYEMLQNIFAIFRQDSSSTGWNETIVENLLANVYHQINHLKTVLEEKLEKEDFTRGKLMSSLHLKRYYGRILHYLKAKEYSHCAWTIVRVEILRNFYFINRLTGYLRN light: not shown	–	37.3 ng/mL	1.27 ng/mL	–
IFA109 (antibody, human IgG2, kappa) heavy: QVQLVESGGGVVQPGKSLRLSCAASGFTFSSNGIHWVRQAPGKGLEWVAVIWSDGSNKFYADSVKGRFTISRDNSKNTLYLQMNSLRAEDTAVYYCARASGSGSYYNFFDYWGQGTLVTVSSASTKGPSVFPLAPCSRSTSESTAALGCLVKDYFPEPVTVSWNSGALTSGVHTFPAVLQSSGLYSLSSVVTVPSSNFGTQTYTCNVDHKPSNTKVDKTVERKCCVECPPCPAPPVAGPSVFLFPPKPKDTLMISRTPEVTCVVVDVSHEDPEVQFNWYVDGVEVHNAKTKPREEQFNSTFRVVSVLTVVHQDWLNGKEYKCKVSNKGLPAPIEKTISKTKGQPREPQVYTLPPSREEMTKNQVSLTCLVKGFYPSDIAVEWESNGQPENNYKTTPPMLDSDGSFFLYSKLTVDKSRWQQGNVFSCSVMHEALHNHYTQKSLSLSPGAEAAAKEAAAKASYNLLGFLQRSSNFQSQKLLWQLNGRLEYCLKDRMNFDIPEEIKQLQQFQKEDAALTIYEMLQNIFAIFRQDSSSTGWNETIVENLLANVYHQINHLKTVLEEKLEKEDFTRGKLMSSLHLKRYYGRILHYLKAKEYSHCAWTIVRVEILRNFYFINRLTGYLRN light: not shown	–	30 ng/mL	0.45 ng/mL	–
IFA42 (antibody, human IgG2, kappa) light: DIQMTQSPSSVSASVGDRVTITCRASQGIYSWLAWYQQKPGKAPNLLIYTASTLQSGVPSRFSGSGSGTDFTLTISSLQPEDFATYYCQQANIFPLTFGGGTKVEIKRTVAAPSVFIFPPSDEQLKSGTASVVCLLNNFYPREAKVQWKVDNALQSGNSQESVTEQDSKDSTYSLSSTLTLSKADYEKHKVYACEVTHQGLSSPVTKSFNRGECGGGGSGGGGSGGGGSGGGGSQDPYVKEAENLKKYFNAGHSDVADNGTLFLGILKNWKEESDRKIMQSQIVSFYFKLFKNFKDDQSIQKSVETIKEDMNVKFFNSNKKKRDDFEKLTNYSVTDLNVQRKAIHELIQVMAELSPAAKTGKRKRSQMLFRGRRASQ heavy: not shown	65.6 ng/mL	–	–	IFNγ EC50 (HEK-Blue IFNγ reporter cells) [6]: 15.4 ng/mL
IFA106 (antibody, human IgG2, kappa) heavy: QVQLVESGGGVVQPGKSLRLSCAASGFTFSSNGIHWVRQAPGKGLEWVAVIWSDGSNKFYADSVKGRFTISRDNSKNTLYLQMNSLRAEDTAVYYCARASGSGSYYNFFDYWGQGTLVTVSSASTKGPSVFPLAPCSRSTSESTAALGCLVKDYFPEPVTVSWNSGALTSGVHTFPAVLQSSGLYSLSSVVTVPSSNFGTQTYTCNVDHKPSNTKVDKTVERKCCVECPPCPAPPVAGPSVFLFPPKPKDTLMISRTPEVTCVVVDVSHEDPEVQFNWYVDGVEVHNAKTKPREEQFNSTFRVVSVLTVVHQDWLNGKEYKCKVSNKGLPAPIEKTISKTKGQPREPQVYTLPPSREEMTKNQVSLTCLVKGFYPSDIAVEWESNGQPENNYKTTPPMLDSDGSFFLYSKLTVDKSRWQQGNVFSCSVMHEALHNHYTQKSLSLSPGPAPASYNLLGFLQRSSNFQCQKLLWQLNGRLEYCLKDRMNFDIPEEIKQLQQFQKEDAALTIYEMLQNIFAIFRQDSSSTGWNETIVENLLANVYHQINHLKTVLEEKLEKEDFTRGKLMSSLHLKRYYGRILHYLKAKEYSHCAWTIVRVEILRNFYFINRLTGYLRN light: not shown	–	190 ng/mL	10.3 ng/mL	–
IFA107 (antibody, human IgG2, kappa) heavy: QVQLVESGGGVVQPGKSLRLSCAASGFTFSSNGIHWVRQAPGKGLEWVAVIWSDGSNKFYADSVKGRFTISRDNSKNTLYLQMNSLRAEDTAVYYCARASGSGSYYNFFDYWGQGTLVTVSSASTKGPSVFPLAPCSRSTSESTAALGCLVKDYFPEPVTVSWNSGALTSGVHTFPAVLQSSGLYSLSSVVTVPSSNFGTQTYTCNVDHKPSNTKVDKTVERKCCVECPPCPAPPVAGPSVFLFPPKPKDTLMISRTPEVTCVVVDVSHEDPEVQFNWYVDGVEVHNAKTKPREEQFNSTFRVVSVLTVVHQDWLNGKEYKCKVSNKGLPAPIEKTISKTKGQPREPQVYTLPPSREEMTKNQVSLTCLVKGFYPSDIAVEWESNGQPENNYKTTPPMLDSDGSFFLYSKLTVDKSRWQQGNVFSCSVMHEALHNHYTQKSLSLSPGPAPASYNLLGFLQRSSNFQSQKLLWQLNGRLEYCLKDRMNFDIPEEIKQLQQFQKEDAALTIYEMLQNIFAIFRQDSSSTGWNETIVENLLANVYHQINHLKTVLEEKLEKEDFTRGKLMSSLHLKRYYGRILHYLKAKEYSHCAWTIVRVEILRNFYFINRLTGYLRN light: not shown	–	142 ng/mL	2.03 ng/mL	–
IFA45 (antibody, human IgG2, kappa) heavy: not shown light: DIQMTQSPSSVSASVGDRVTITCRASQGIYSWLAWYQQKPGKAPNLLIYTASTLQSGVPSRFSGSGSGTDFTLTISSLQPEDFATYYCQQANIFPLTFGGGTKVEIKRTVAAPSVFIFPPSDEQLKSGTASVVCLLNNFYPREAKVQWKVDNALQSGNSQESVTEQDSKDSTYSLSSTLTLSKADYEKHKVYACEVTHQGLSSPVTKSFNRGEC	25.8 ng/mL	–	–	IFNλ EC50 (HEK-Blue IFNλ reporter cells) [1]: < 0.001 ng/mL
CP870,893 (antibody, human IgG2, kappa) heavy: not shown light: DIQMTQSPSSVSASVGDRVTITCRASQGIYSWLAWYQQKPGKAPNLLIYTASTLQSGVPSRFSGSGSGTDFTLTISSLQPEDFATYYCQQANIFPLTFGGGTKVEIKRTVAAPSVFIFPPSDEQLKSGTASVVCLLNNFYPREAKVQWKVDNALQSGNSQESVTEQDSKDSTYSLSSTLTLSKADYEKHKVYACEVTHQGLSSPVTKSFNRGEC	–	–	–	CD40 EC50 (HEK-Blue CD40L NFκB-SEAP reporter cells) (human CD40 [3]): 30 to 80 ng/mL; CD40 EC50, mean (HEK-Blue CD40L NFκB-SEAP reporter cells) (human CD40 [3]): 48 ng/mL; CD40 EC50 in the experiment of FIG. 3 (HEK-Blue CD40L NFκB-SEAP reporter cells) (human CD40 [3]): 57 ng/mL
